{"source": "patent US20220089727A1", "about": "(CHANGCHUN GENESCIENCE PHARMACEUTICAL, published 2022)", "binders": {"B1": {"name": "059-1.20.1 (antibody, mouse IgG1, V domains shown)", "VH": "EVQLQQSGPELVKPGASVNMSCKASGYTFTNYFLHWVKQKPGQGLEWIGYINPYNDGTNYNENFKGKATLTSDKSSSTAYMELSSLTSEDSAVYYCAKGGWFSMDYWGQGTSVTVSS", "VL": "DVVMTQTPLSLPVSLGDQASISCRSSQSLVHSNGKTYLQWYLQKPGQSPKLLIYKVSNRFSGVPDRFSGSGSGTDFTLKISRVEAEDLGVYFCSQSTHVYTFGGGTKLEIK", "notes": "also called 059-1.20.1 purified antibody"}, "B2": {"name": "059-1.82.1 (antibody, mouse IgG3, V domains shown)", "VH": "B1 VH with N19K, F33V, L34M, N63K", "VL": "B1 VL"}, "B3": {"name": "B6H12 (commercialized CD47 antibody, purchased from Abcam, catalog No. ab3283) (antibody)", "chain": "EVQLVESGGDLVKPGGSLKLSCAASGFTFSGYGMSWVRQTPDKRLEWVATITSGGTYTYYPDSVKGRFTISRDNAKNTLYLQIDSLKSEDTAIYFCARSLAGNAMDYWGQGTSVTVSSGGGGSGGGGSGGGGSDIVMTQSPATLSVTPGDRVSLSCRASQTISDYLHWYQQKSHESPRLLIKFASQSISGIPSRFSGSGSGSDFTLSINSVEPEDVGVYYCQNGHGFPRTFGGGTKLEIK"}, "B4": {"name": "059-1.30.1 (antibody, mouse IgG1, V domains shown)", "VH": "EVQLQQSGPELVKPGASVRMSCKASGYTFTNYVMHWVKQKPGQGLEWIGYINPYNDGTKYSEKFKGKATLTSDKSSITAYMELSSLTSEDSAVYYCAKGGLFTFDYWGQGTTLTVSS", "VL": "DVVMTQTPLSLPVSLGDQASISCRSSQSLVHSKGNTYLHWYLQKPGQSPKLLIYRVSNRFSGVPDRFSGSGSGTDFTLKISRVEAEDLGVYFCSQSTHVPFTFGSGTKLEIK", "notes": "also called 059-1.30.1 purified antibody"}, "B5": {"name": "059-1.43.1 (antibody, mouse IgG1, V domains shown)", "VH": "QVQLQQSGAELVRPGASVTLSCKASGYTFTDYEMHWVKQTPVHGLEWIGAIDPETGGTAYNQKFKGKATLTADKSSSTAYMELRSLTSEDSAVYYCTRGTPYAMDYWGQGTSVTVSS", "VL": "B4 VL with K33N, R55K, F101W, S105G", "notes": "also called 059-1.43.1 purified antibody"}, "B6": {"name": "059-1.11.1 (antibody, mouse IgM, V domains shown)", "VH": "B5 VH", "VL": "B4 VL with K33N, R55K, D65E, F101W, S105G", "notes": "Mouse hybridoma antibody; the subclass paragraph gives the light chain type as kappa; also called 059-1.11.1 purified antibody"}, "B7": {"name": "059-1.100.5 (antibody, mouse IgM, V domains shown)", "VH": "B5 VH with K63N", "VL": "B4 VL with K33N, R55K, F101W, S105G", "notes": "Mouse hybridoma antibody; light chain type kappa; also called 059-1.100.5 purified antibody"}, "B8": {"name": "059-1.51.2 (antibody, mouse IgM, V domains shown)", "VH": "EVQLQQSGPELVKPGASVKMSCKASGYTFTNYVMHWMKQKPGQGLEWIGYINPYNDDTKYNEKFKDRATLTSDKSSSTAYMELSSLTSEDSAVYYCAKGGYYSMDYWGQGTSVTVSS", "VL": "B4 VL with R55K", "notes": "Mouse hybridoma antibody; light chain type kappa"}}, "key": {"[1]": {"biological_target": "T1, CD47 on the surface of Jurkat cells (human, UniProt Q08722 19-323)", "experiment": "cell-based or functional assay"}, "[2]": {"biological_target": "T1, CD47 on the surface of Jurkat cells", "experiment": "cell-based or functional assay", "remark": "listed apart in the source"}, "[3]": {"biological_target": "T2, human CD47ECD-linker peptide-7his (human, UniProt Q08722 19-139)", "T2 construct": "also called hCD47-his; human CD47-his", "experiment": "ELISA, hCD47-his coated at 1 µg/ml, cell culture supernatant"}, "[4]": {"biological_target": "T3, monkey CD47ECD-linker peptide-7his (monkey)", "T3 construct": "also called Monkey CD47-his", "T3 chain": "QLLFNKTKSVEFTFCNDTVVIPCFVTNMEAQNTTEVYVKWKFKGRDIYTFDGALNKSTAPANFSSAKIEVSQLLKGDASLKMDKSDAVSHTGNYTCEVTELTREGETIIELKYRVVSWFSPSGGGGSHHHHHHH", "experiment": "ELISA, monkey CD47-his coated at 1 µg/ml, cell culture supernatant"}, "[5]": {"biological_target": "T4, human CD47 (analyte in the Biacore assay) (human, UniProt Q08722 19-139, limits assumed)", "T4 construct": "also called human CD47 protein", "experiment": "SPR (Biacore T200), antibody captured by anti-mouse Fc, human CD47 as analyte"}, "[6]": {"biological_target": "T1, CD47 on the surface of Jurkat cells", "experiment": "flow cytometry on Jurkat cells, hybridoma supernatant, anti-mouse IgG Fc FITC"}, "[7]": {"biological_target": "T5, human CD47-linker peptide-hIgG1Fc (human)", "T5 construct": "also called Human CD47-hFc; human CD47-hFc", "experiment": "competition ELISA: human CD47-hFc coated, blocked ligand human SIRP-his"}, "[8]": {"biological_target": "T5, human CD47-linker peptide-hIgG1Fc", "experiment": "competition ELISA: CD47-hFc coated, antibody titrated against human SIRP-his (competitor), anti-His detection"}}, "note": "Where a chain is given by its changes, count along the chain named."}
{"binder": "B1", "values": [{"measurement": "phagocytic index", "setting": "[1]", "value": "43 Jurkat cells phagocytized per 100 macrophages"}, {"measurement": "Apoptotic rate (%)", "setting": "[2]", "value": 33, "unit": "%"}, {"measurement": "OD450", "setting": "[3]", "value": 4, "unit": "OD450"}, {"measurement": "OD450", "setting": "[4]", "value": 4, "unit": "OD450"}, {"measurement": "Kd", "setting": "[5]", "value": 25.3, "unit": "nM"}, {"measurement": "koff", "setting": "[5]", "value": 0.00548, "unit": "s⁻¹"}, {"measurement": "kon", "setting": "[5]", "value": 217000, "unit": "M⁻¹ s⁻¹"}, {"measurement": "MFI", "setting": "[6]", "value": 15300, "unit": "MFI"}, {"measurement": "IC50 (read off the curve)", "setting": "[7]", "value": "~1", "unit": "µg/mL"}, {"measurement": "EC50", "setting": "[8]", "value": 1190, "unit": "nM"}]}
{"binder": "B2", "values": [{"measurement": "phagocytic index", "setting": "[1]", "value": "74 Jurkat cells phagocytized per 100 macrophages"}, {"measurement": "Apoptotic rate (%)", "setting": "[2]", "value": 24, "unit": "%"}, {"measurement": "OD450", "setting": "[3]", "value": 4, "unit": "OD450"}, {"measurement": "OD450", "setting": "[4]", "value": 3.9, "unit": "OD450"}, {"measurement": "Kd", "setting": "[5]", "value": 14.2, "unit": "nM"}, {"measurement": "koff", "setting": "[5]", "value": 0.00364, "unit": "s⁻¹"}, {"measurement": "kon", "setting": "[5]", "value": 256000, "unit": "M⁻¹ s⁻¹"}, {"measurement": "MFI", "setting": "[6]", "value": 9550, "unit": "MFI"}, {"measurement": "IC50 (read off the curve)", "setting": "[7]", "value": "~1", "unit": "µg/mL"}, {"measurement": "EC50", "setting": "[8]", "value": 1030, "unit": "nM"}]}
{"binder": "B3", "values": [{"measurement": "phagocytic index", "setting": "[1]", "value": "20 Jurkat cells phagocytized per 100 macrophages"}, {"measurement": "Apoptotic rate (%)", "setting": "[2]", "value": 8, "unit": "%"}, {"measurement": "Kd", "setting": "[5]", "value": 27.5, "unit": "nM"}, {"measurement": "koff", "setting": "[5]", "value": 0.00364, "unit": "s⁻¹"}, {"measurement": "kon", "setting": "[5]", "value": 132000, "unit": "M⁻¹ s⁻¹"}, {"measurement": "IC50 (read off the curve)", "setting": "[7]", "value": "~1", "unit": "µg/mL"}]}
{"binder": "B4", "values": [{"measurement": "phagocytic index", "setting": "[1]", "value": "70 Jurkat cells phagocytized per 100 macrophages"}, {"measurement": "Apoptotic rate (%)", "setting": "[2]", "value": 48, "unit": "%"}, {"measurement": "OD450", "setting": "[3]", "value": 4, "unit": "OD450"}, {"measurement": "OD450", "setting": "[4]", "value": 4, "unit": "OD450"}, {"measurement": "Kd", "setting": "[5]", "value": 30.1, "unit": "nM"}, {"measurement": "koff", "setting": "[5]", "value": 0.0128, "unit": "s⁻¹"}, {"measurement": "kon", "setting": "[5]", "value": 424000, "unit": "M⁻¹ s⁻¹"}, {"measurement": "MFI", "setting": "[6]", "value": 9950, "unit": "MFI"}, {"measurement": "IC50 (read off the curve)", "setting": "[7]", "value": "~1", "unit": "µg/mL"}, {"measurement": "EC50", "setting": "[8]", "value": 1030, "unit": "nM"}]}
{"binder": "B5", "values": [{"measurement": "phagocytic index", "setting": "[1]", "value": "79 Jurkat cells phagocytized per 100 macrophages"}, {"measurement": "Apoptotic rate (%)", "setting": "[2]", "value": 37, "unit": "%"}, {"measurement": "OD450", "setting": "[3]", "value": 4, "unit": "OD450"}, {"measurement": "OD450", "setting": "[4]", "value": 4, "unit": "OD450"}, {"measurement": "Kd", "setting": "[5]", "value": 28.3, "unit": "nM"}, {"measurement": "koff", "setting": "[5]", "value": 0.00666, "unit": "s⁻¹"}, {"measurement": "kon", "setting": "[5]", "value": 236000, "unit": "M⁻¹ s⁻¹"}, {"measurement": "MFI", "setting": "[6]", "value": 18500, "unit": "MFI"}, {"measurement": "IC50 (read off the curve)", "setting": "[7]", "value": "~0.9", "unit": "µg/mL"}, {"measurement": "EC50", "setting": "[8]", "value": 850, "unit": "nM"}]}
{"binder": "B6", "values": [{"measurement": "OD450", "setting": "[3]", "value": 3.67, "unit": "OD450"}, {"measurement": "OD450", "setting": "[4]", "value": 4, "unit": "OD450"}, {"measurement": "Kd", "setting": "[5]", "value": 15.5, "unit": "nM"}, {"measurement": "koff", "setting": "[5]", "value": 0.00402, "unit": "s⁻¹"}, {"measurement": "kon", "setting": "[5]", "value": 260000, "unit": "M⁻¹ s⁻¹"}, {"measurement": "MFI", "setting": "[6]", "value": 6630, "unit": "MFI"}, {"measurement": "EC50", "setting": "[8]", "value": 2340, "unit": "nM"}]}
{"binder": "B7", "values": [{"measurement": "OD450", "setting": "[3]", "value": 0.81, "unit": "OD450"}, {"measurement": "OD450", "setting": "[4]", "value": 0.617, "unit": "OD450"}, {"measurement": "Kd", "setting": "[5]", "value": 44, "unit": "nM"}, {"measurement": "koff", "setting": "[5]", "value": 0.0069, "unit": "s⁻¹"}, {"measurement": "kon", "setting": "[5]", "value": 157000, "unit": "M⁻¹ s⁻¹"}, {"measurement": "MFI", "setting": "[6]", "value": 216, "unit": "MFI"}]}
{"binder": "B8", "values": [{"measurement": "OD450", "setting": "[3]", "value": 0.771, "unit": "OD450"}, {"measurement": "OD450", "setting": "[4]", "value": 0.634, "unit": "OD450"}, {"measurement": "Kd", "setting": "[5]", "value": 27.3, "unit": "nM"}, {"measurement": "koff", "setting": "[5]", "value": 0.0101, "unit": "s⁻¹"}, {"measurement": "kon", "setting": "[5]", "value": 370000, "unit": "M⁻¹ s⁻¹"}, {"measurement": "MFI", "setting": "[6]", "value": 144, "unit": "MFI"}]}
